# Where two headings read alike, the source gives them in different places.
# Tests used:
# [1] = target: T1, pTag_(18aa) (original 18 amino acid peptide tag) (Clostridium tetani, tetanus …)
# [2] = target: T2, pTag9aa (free, without cargo) (Clostridium tetani, tetanus …)
# [3] = target: T1, pTag_(18aa) (original 18 amino acid …); test: SPR; […]; 25 °C, HBS with 0.05% Tween20, pH 7.5; Biacore T200, 1:1 Langmuir model; conditions: both partners purified
# [4] = target: pTag_(12aa) (Clostridium tetani, tetanus …); test: as above; conditions: both partners purified
# [5] = target: T2, pTag9aa (free, without cargo); test: as above; conditions: both partners purified
# [6] = target: T3, human CD40-Fc (human, UniProt P25942); test: SPR; wildtype against deimmunized variant on the CD40 protein (Supplementary Fig. 3B); format of this experiment not told in what was shown; conditions: both partners purified
# T3 construct: also called hCD40-Fc
# T3 sequence (P25942 21-193): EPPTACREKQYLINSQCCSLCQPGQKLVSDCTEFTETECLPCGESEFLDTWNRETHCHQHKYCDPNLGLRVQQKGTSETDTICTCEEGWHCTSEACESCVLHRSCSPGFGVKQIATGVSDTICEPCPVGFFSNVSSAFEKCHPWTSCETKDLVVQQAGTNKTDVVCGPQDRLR
binder,measurement,setting,value
"BiA9*2_HF (antibody, V domains shown) VH: QVQLVQSGAEVKKPGASVKVSCKASGFNIKDFNIHWVRQAPGQGLEWIGRIDPENGDAEYVPKFQGRVTMTRDTSTSTVYMELSSLRSEDTAVYYCTTGSYDLDVEYWGQGTLVTVSS VL: DIQMTQSPSSLSASVGDRVTITCHASQNINVWLSWYQQKPGKAPKLLIYKASTLHTGVPSRFSGSGSGTDFTLTISSLQPEDFATYYCQQGQSYPLTFGQGTKLEIK",binding result,[1],binds
same,binding result,[2],binds
" (scFv, V domains shown, also called humanized scFv; humanized single chain clone SG; source: E. coli, purified (Ni-NTA)) VH: QVQLVQSGAEVKKPGASVKVSCKASGFNIKDFNIHWVRQAPGQGLEWIGRIDPESGDAEYVPKFQGRVTMTRDTSTSTVYMELSSLRSEDTAVYYCTTGSYDLDVEYWGQGTLVTVSS VL: DIQMTQSPSSLSASVGDRVTITCHASQNINVWLSWYQQKPGKAPKLLIYKASTLHTGVPSRFSGSGSGTDFTLTISSLQPEDFATYYCQQGQSYPLTFGQGTKLEIK",binding result,[3],binds
same,binding result,[4],binds
same,binding result,[5],binds
"A9 anti-CD40 antibody, wildtype variant (before deimmunization) (antibody, V domains shown, also called WT; original variant) VH: EVQLLESGGGLVQPGGSLRLSCAASGFTFSSYAMSWVRQAPGKGLEWVSGISGYSGSTYYADSVKGRFTISRDNSKNTLYLQMNSLRAEDTAVYYCARYYSYYGYYYFDYWGQGTLVTVSS VL: DIQMTQSPSSLSASVGDRVTITCRASQSISSYLNWYQQKPGKAPKLLIYAASSLQSGVPSRFSGSGSGTDFTLTISSLQPEDFATYYCQQGYPYPFTFGQGTKLEIK",Kd,[6],3.4 nM
"murine anti-pTag scFv (scFv, V domains shown, also called murine scFv; mscFv) VH: EVRLLQSGAALVRPGASVKLSCTASGFNIKDFNIHWVKQRPEQGLEWIGRIDPENGDAEYVPKFQVRATMTTDTSSNTVYLHLSSLTSGDTAVYYCTTGSYDLDVEYWGQGTTLTVSS VL: ELQMTQSPSSLSASLGDTVTITCHASQNINVWLSWYQQRPGNIPKLLIYKASTLHTGVPSRFRGSGSGTGFTLTISSLQPEDIATYYCQQGQSYPLTFGAGTKLELK",Kd,[3],4 nM
same,binding result,[4],binds

# Source: paper PMC11538452 (Nature Communications, 2024)
